Results from the supplement of paper PMC9170038.

Tests used:
MS2 coat protein [1] = experiment: apparent KD of MS2 coat protein; designed switch direction (-1 OFF switch, 1 ON switch): 1; higher = weaker reporter binding; details: Eterna round: R98
Procedure: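 RNA-MaP: designed FMN/MS2 RNA switches (84 nt design region) are transcribed on-chip within common flanks and titrated with SNAP-549-labelled MS2 coat protein (about 1-3000 nM) in 100 mM Tris pH 7.5, 80 mM KCl, 4 mM MgCl2, without or with 200 uM FMN. Median apparent KD per design; activation ratio = KD,OFF / KD,ON.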

MS2 coat protein [2] = experiment: apparent KD of MS2 coat protein, switch OFF state (with FMN for OFF switches, without FMN for ON switches); designed switch direction (-1 OFF switch, 1 ON switch): 1; higher = weaker reporter binding; details: FMN input: 0 or 200 uM; Eterna round: R93 (includes R88 designs)
Method in brief: (§1)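 Illumina sequencing clusters were used for on-chip transcription of designed RNA switches. Titration with SNAP-549-labelled MS2 coat protein followed, in twofold steps from 0.7 or 1.5 nM to 3 µM in 100 mM Tris-HCl pH 7.5, 80 mM KCl, 4 mM MgCl2, without or with constant ligand. Apparent KD is each design's median of fits to normalised cluster binding curves.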

MS2 coat protein [3] = experiment: apparent KD of MS2 coat protein, switch ON state; designed switch direction (-1 OFF switch, 1 ON switch): 1; higher = weaker reporter binding; details: FMN input: 0 or 200 uM; Eterna round: R93 (includes R88 designs)
Method in brief: as §1

Q: Which “apparent KD of MS2 coat protein” value (MS2 coat protein [1]; input ligand: FMN 200 uM) does the source give for “GCUUGCGACGCAGGAUAUGGGUGCCUAAACACGAGGAUCACCCGUGUACAGGAAGCUAAAUGCUCUCAGAAGGGCGUCGCAGGC [United States 9 - Jieux - Same State NG 2]” here?
A: 17.5 nM

Q: And the “apparent KD of MS2 coat protein” value (MS2 coat protein [1]; input ligand: none)?
A: 46.7 nM

Q: How did the “apparent KD of MS2 coat protein” value (MS2 coat protein [1]; input ligand: FMN 200 uM) turn out when “GACGGAUUCUUAGGAUAUGCUCAGGAAUACUGAGCAGAAGGAAGAAUAACCUGAGGAUCACCCAGGUAAUACUGAACGUCAAUA [Same State NG1 - A3C, U17G Submission 9A]” was run?
A: 23.7 nM

Q: And the “apparent KD of MS2 coat protein” value (MS2 coat protein [1]; input ligand: none)?
A: 58.1 nM

Q: Which “apparent KD of MS2 coat protein” value (MS2 coat protein [1]; input ligand: FMN 200 uM) does the source give for “CCCUUCAGAAGAGGGACAUGAGGAUCACCCAUGUAGGCUGCACAGGAUAUCGAUCGGAGGCGGUACGAGAAGGGUGAUGUCAUU [Riorrebi]” here?
A: 27.9 nM

Q: What about the “apparent KD of MS2 coat protein” value (MS2 coat protein [1]; input ligand: none) of the same sequence?
A: 36.2 nM

Q: What does the source list for “ACGUCCCGCAGAGGAUAUGUUGUUCGGCCUACAUGAGGAUCACCCAUGUCAAAGGGCUGAUCCCGACAGAAGGCUGAAGGAUAC [Qudiator]”?
A: apparent KD of MS2 coat protein (MS2 coat protein [1]; input ligand: FMN 200 uM): 24.8 nM; apparent KD of MS2 coat protein (MS2 coat protein [1]; input ligand: none): 57.5 nM

Q: Which “apparent KD of MS2 coat protein” value (MS2 coat protein [2]) does the source give for “AAAAAAGAUCGAGAGGAUAUCCGAGUGGUAACAUGAGGAUCACCCAUGUGAAGAAAGGAACAUGAGGAGAAGGCUCGAUCAAAAA [viburnum 4]” here?
A: 18.7 nM

Q: And the “apparent KD of MS2 coat protein” value (MS2 coat protein [3])?
A: 7.85 nM

Q: For “AAUAAUUAUACGAAGGAUAUCGGUAAUUAGACAUGAGGAUCACCCAUGUAAUAUGGUUAAAUAAUCGAGAAGGUCGAGGGUGAAA [JR_SS002_Sub503]”, which “apparent KD of MS2 coat protein” value (MS2 coat protein [2]) is on record?
A: 42.2 nM

Q: And the “apparent KD of MS2 coat protein” value (MS2 coat protein [3])?
A: 55.3 nM

Q: With “GAAAAACAUGAGGAUCACCCAUGUAGAAAUAUGGGAGGAUAUACUAAGACGAAAGUCGAUGUAGAAGGCCUAAAAG [Same State 1.4g (Mat - Mod of Eli - )]” as the sequence, how does the “apparent KD of MS2 coat protein” value (MS2 coat protein [2]) read?
A: 42.8 nM

Q: What about the “apparent KD of MS2 coat protein” value (MS2 coat protein [3]) of the same sequence?
A: 21.6 nM

Q: What does the source list for “AAAAAACAUGAGGAUCACCCAUGUCUUCGGACGUGAGGAUAUGUACAGACUUCGGUCUGUACAGAAGGCACAAAAA [SS1 - 1033]”?
A: apparent KD of MS2 coat protein (MS2 coat protein [2]): 397 nM; apparent KD of MS2 coat protein (MS2 coat protein [3]): 38.1 nM

Q: “AAAUAAAGGACUGAGGAUAUACCACAUGAAACAUGAGGAUCACCCAUGUUAAAAAACAAAGGGUGGUAGAAGGCAGUCCACAAAC [Same State 2.5f ( so lets mod hyphema)]” was tested. Which “apparent KD of MS2 coat protein” value (MS2 coat protein [2]) did it give?
A: 12.1 nM

Q: What about the “apparent KD of MS2 coat protein” value (MS2 coat protein [3]) of the same sequence?
A: 9.26 nM

Q: With “GCAAAACAUGAGGAUCACCCAUGUCAACAAAAUCAAGGAUAUGAGCCGGCAUUGCCGGCAUCAGAAGGUGAACCUU [Gemaisinve]” as the sequence, how does the “apparent KD of MS2 coat protein” value (MS2 coat protein [2]) read?
A: 129 nM

Q: What about the “apparent KD of MS2 coat protein” value (MS2 coat protein [3]) of the same sequence?
A: 96.1 nM

Q: How did the “apparent KD of MS2 coat protein” value (MS2 coat protein [2]) turn out when “AAAGAAAAACUAGAGGAUAUCUAGAUGAUAACAUGAGGAUCACCCAUGUGAAGAAAGGAAUAUAGGGAGAAGGCUAGAAGAAAAA [JL Nando mod 20]” was run?
A: 28.6 nM

Q: And the “apparent KD of MS2 coat protein” value (MS2 coat protein [3])?
A: 21.8 nM

Q: Which results are given for “AAACCACAUGAGGAUCACCCAUGUAGAAAUAUGGGAGGAUAUACAAAGACGAAAGUCAAAGUAGAAGGCCUAAAAG [77%, Mat - Mod of Eli, 5]”?
A: apparent KD of MS2 coat protein (MS2 coat protein [2]): 97.5 nM; apparent KD of MS2 coat protein (MS2 coat protein [3]): 31.4 nM

Q: How did the “apparent KD of MS2 coat protein” value (MS2 coat protein [2]) turn out when “CAUAGACAUGAGGAUCACCCAUGUAGAAUUAUGGGAGGAUAUACAAAGACGAGAGUCAGAGUAGAAGGCCUAGGAU [salish99-ss1-162]” was run?
A: 35.6 nM

Q: What about the “apparent KD of MS2 coat protein” value (MS2 coat protein [3]) of the same sequence?
A: 24.1 nM

Q: With “GGAAAUAAAAGAGAGGAUAUCCAAAGGAAAACAUGAGGAUCACCCAUGUAAAAGGAAGGAAAGUGGGAGAAGGCUCAAAAUAAGG [salish99-ss2-008]” as the sequence, how does the “apparent KD of MS2 coat protein” value (MS2 coat protein [2]) read?
A: 49.9 nM

Q: What about the “apparent KD of MS2 coat protein” value (MS2 coat protein [3]) of the same sequence?
A: 29.6 nM

Q: What does the source list for “AAUAUAUUAAGUGAGGAUAUCAUAGAAAAAACAUGAGGAUCACCCAUGUGGGAAACCUGGUCGGGUGAGAAGGCACUUAAUAUAU [Samwise Clockwise 29 - Jieux - Same State 2]”?
A: apparent KD of MS2 coat protein (MS2 coat protein [2]): 704 nM; apparent KD of MS2 coat protein (MS2 coat protein [3]): 71.4 nM

Q: With “AAUAACAAAAGAAAGGAUAUGCGCACAGGAACAUGAGGAUCACCCAUGUGCCGCCAAGGCGGAUAGCAGAAGGUUCACACGCAUA [Default title]” as the sequence, how does the “apparent KD of MS2 coat protein” value (MS2 coat protein [2]) read?
A: 20.1 nM

Q: What about the “apparent KD of MS2 coat protein” value (MS2 coat protein [3]) of the same sequence?
A: 19.4 nM

Q: Which results are given for “AGAAAUAAAAGAGAGGAUAUCUUAAAGAAAACAUGAGGAUCACCCAUGUAAAAGAAAAUAAAAUGGGAGAAGGCUCAUAAUAAAG [JL Skelter Mod 4 In the Red]”?
A: apparent KD of MS2 coat protein (MS2 coat protein [2]): 109 nM; apparent KD of MS2 coat protein (MS2 coat protein [3]): 151 nM

Q: Which results are given for “AGGAGACAUGAGGAUCACCCAUGUAGAAGGAUGGGAGGAUAUACAAAGACGAGAGUCAGAGUAGAAGGCCUAGGGA [salish99-ss1-183(!)]”?
A: apparent KD of MS2 coat protein (MS2 coat protein [2]): 54.1 nM; apparent KD of MS2 coat protein (MS2 coat protein [3]): 24.2 nM

Q: With “AAUAUACAUGAGGAUCACCCAUGUUUUGGUGUAUGAGGAUAUAAAAAAAAUUAAAUAAAAUUAGAAGGCAUAAAUA [JR_SS001_Sub001]” as the sequence, how does the “apparent KD of MS2 coat protein” value (MS2 coat protein [2]) read?
A: 48.7 nM

Q: What about the “apparent KD of MS2 coat protein” value (MS2 coat protein [3]) of the same sequence?
A: 49.2 nM

Q: Which results are given for “AAAAAAAAGCCCAAGGAUAUCCGGAUGAAGACAUGAGGAUCACCCAUGUGAAAAAAAAAAUAUGAGGAGAAGGUGGGAAAAAAAAA [Esgemaedso]”?
A: apparent KD of MS2 coat protein (MS2 coat protein [2]): 76.6 nM; apparent KD of MS2 coat protein (MS2 coat protein [3]): 63.4 nM
